From patent US20030092157, “Compositions, screening systems and methods for modulating HDL cholesterol and triglyceride levels” (published 2003)

Experiments:
[1] = biological target: T1, LXRα/RXR heterodimer (expressed in Cos-1) (Homo sapiens? / Mus musculus?, UniProt Q13133;P28700 Q13133:1-447,P28700:1-467); experiment: cell_activity; 3 copies, luciferase, 1 µM 22(R)-hydroxycholesterol
T1 sequence 1: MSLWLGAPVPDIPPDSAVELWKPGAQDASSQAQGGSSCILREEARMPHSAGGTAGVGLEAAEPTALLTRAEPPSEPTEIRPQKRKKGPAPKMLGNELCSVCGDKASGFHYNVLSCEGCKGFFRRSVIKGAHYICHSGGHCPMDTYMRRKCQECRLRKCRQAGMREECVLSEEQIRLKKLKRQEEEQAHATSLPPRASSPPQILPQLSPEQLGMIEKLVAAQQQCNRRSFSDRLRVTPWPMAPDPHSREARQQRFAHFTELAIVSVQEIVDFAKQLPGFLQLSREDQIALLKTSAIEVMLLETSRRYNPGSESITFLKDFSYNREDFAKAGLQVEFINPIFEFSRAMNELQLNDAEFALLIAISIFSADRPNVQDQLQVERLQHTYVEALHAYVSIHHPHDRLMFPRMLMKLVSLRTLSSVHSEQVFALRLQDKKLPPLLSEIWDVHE
T1 sequence 2: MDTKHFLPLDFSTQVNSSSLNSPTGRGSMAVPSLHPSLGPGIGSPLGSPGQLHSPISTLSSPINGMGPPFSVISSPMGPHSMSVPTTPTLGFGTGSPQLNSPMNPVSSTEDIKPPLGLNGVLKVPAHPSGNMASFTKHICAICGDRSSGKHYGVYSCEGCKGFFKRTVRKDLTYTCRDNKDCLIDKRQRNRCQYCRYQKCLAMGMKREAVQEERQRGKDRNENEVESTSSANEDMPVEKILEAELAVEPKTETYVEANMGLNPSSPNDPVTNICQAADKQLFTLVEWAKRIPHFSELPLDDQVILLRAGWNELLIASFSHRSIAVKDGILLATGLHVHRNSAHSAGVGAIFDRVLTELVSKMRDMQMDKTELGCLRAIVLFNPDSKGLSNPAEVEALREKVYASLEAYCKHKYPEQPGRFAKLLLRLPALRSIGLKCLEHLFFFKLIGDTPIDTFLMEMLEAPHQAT
Procedure: (§1) FIG. 3 is a bar graph illustrating that the LXREs are functional for LXRα transactivation. Cos-1 cells were cotransfected with multiple copies of the putative LXREs in the reporter plasmid TKpGI3 and expression plasmids for LXRα and RXR. Cells were then treated for 48 h with 1 μM 22(R)-hydroxycholesterol. Luciferase activity was determined and plotted as fold activation relative to vehicle-treated cells.
(§2) Cells were transfected for 3 hours by lipofection using ExGen 500 (Euromedex) in OPTIMEM 1. Medium was then replaced by Dulbecco's Modified Eagle's Medium (DMEM) containing 0.2% fetal calf serum and cells were incubated for 48 hours. Cell extracts were prepared and assayed for luciferase activity as described(15). Twenty-four hours before transfection, HepG2 cells, HUH7 cells, CaCo2 cells and RK13 cells were plated in 24-well plates in DMEM supplemented with 10% fetal calf serum at 5×10⁴ cells/well. Transfection mixes contained 100 ng of tkpGI3 reporter vector or pGI3 containing an 8 kb fragment from ABC1 intron I (pGI3-8 kb) (FIG. 1). Cos-1 cells were plated in 24-well plates in DMEM supplemented with 10% fetal calf serum at 5×10⁴ cells/well. Transfection mixes contained 50 ng of reporter plasmid (tkpGI3) containing multiple copies of the putative LXREs and 25 ng of LXRα and RXR expression plasmids, in the presence of the internal control β-gal expression vector. […]

LXRα/RXRα heterodimer [2] = biological target: T2, LXRα/RXRα heterodimer (/ Mus musculus, UniProt Q13133;P28700 Q13133:1-447,P28700:1-467); experiment: competition; competed efficiently for CYP7-LXRE probe; conditions: tags: pCDNA3-LXRα and pSG5-mRXRα, TNT coupled transcription/translation system (Promega)
T2 sequence 1: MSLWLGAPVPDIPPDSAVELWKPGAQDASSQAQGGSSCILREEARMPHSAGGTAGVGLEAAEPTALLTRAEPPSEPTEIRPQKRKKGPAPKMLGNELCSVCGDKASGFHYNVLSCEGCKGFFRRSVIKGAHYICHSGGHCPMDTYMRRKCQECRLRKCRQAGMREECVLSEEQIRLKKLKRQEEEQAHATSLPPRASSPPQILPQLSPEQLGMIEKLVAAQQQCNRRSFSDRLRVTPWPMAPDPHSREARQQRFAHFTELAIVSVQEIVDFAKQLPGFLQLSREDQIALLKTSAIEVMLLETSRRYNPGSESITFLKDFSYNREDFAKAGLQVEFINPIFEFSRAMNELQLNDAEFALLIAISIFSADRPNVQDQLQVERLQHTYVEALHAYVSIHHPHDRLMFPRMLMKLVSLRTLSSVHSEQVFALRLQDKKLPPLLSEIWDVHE
T2 sequence 2: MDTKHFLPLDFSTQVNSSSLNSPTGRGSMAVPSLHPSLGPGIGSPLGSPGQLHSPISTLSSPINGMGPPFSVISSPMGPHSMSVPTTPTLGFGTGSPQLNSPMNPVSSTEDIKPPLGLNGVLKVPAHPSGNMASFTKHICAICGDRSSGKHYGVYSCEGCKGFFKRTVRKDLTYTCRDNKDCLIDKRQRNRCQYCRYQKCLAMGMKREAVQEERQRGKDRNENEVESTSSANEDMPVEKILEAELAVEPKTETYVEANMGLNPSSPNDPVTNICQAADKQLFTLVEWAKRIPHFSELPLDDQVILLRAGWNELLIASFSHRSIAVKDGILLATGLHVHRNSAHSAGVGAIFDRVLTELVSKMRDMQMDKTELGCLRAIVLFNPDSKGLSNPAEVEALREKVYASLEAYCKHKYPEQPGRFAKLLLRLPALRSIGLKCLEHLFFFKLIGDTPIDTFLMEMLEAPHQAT
Procedure: (§3) For FIG. 2A, HepG2 (liver), HuH7 (hepatoma), CaCo₂ (intestinal) and RK13 (kidney) cell lines were cotransfected with empty pGI3 vector or pGI3 containing an 8 kb fragment upstream of exon 2 of ABC1 intron 1 (pGI3-8 kb). Cells were then incubated for 48 hour. Luciferase activity was determined and plotted as fold activation relative to empty pGI3-transfected cells. The results of gel mobility shift assays in which LXRα and RXR were incubated as indicated with the radiolabeled probe corresponding to CYP7-LXRE are shown in FIG. 2B.
(§4) To investigate whether these DR4 were indeed able to bind LXR-RXR heterodimers, gel retardation assays were performed (FIG. 2B). […] As a control, the unlabeled LXRE previously described in ABC1 exon 1 (+4-LXRE) (10,11) also competed efficiently for binding. The signal was then competed with increasing quantities of each unlabeled putative LXRE.

[3] = biological target: T1, LXRα/RXR heterodimer (expressed in …); experiment: cell_activity; 3 copies, luciferase, 1 µM 22(R)-hydroxycholesterol; text's "2-fold and 6-fold, respectively"
Procedure: as §1, §2

LXRα/RXRα heterodimer [4] = biological target: T2, LXRα/RXRα heterodimer; experiment: competition; dose-dependent competition, 5-, 25-, 50-fold excess; conditions: tags: pCDNA3-LXRα and pSG5-mRXRα, TNT coupled transcription/translation system (Promega)
Procedure: as §3, §4

B1: -4696 LXRE (ABC1 intron 1) (dsDNA)
DNA 1: GGATCACCTGAGGTCA
DNA 2: TGACCTCAGGTGATCC
[1]
  activity: 2 fold induction

B2: +4-LXRE (ABC1 exon 1/promoter) (dsDNA)
DNA 1: AGGTTACTATCGGTCA
DNA 2: TGACCGATAGTAACCT
LXRα/RXRα heterodimer [2]
  binding result: binds

B3: -7670 LXRE (ABC1 intron 1) (dsDNA)
DNA 1: AGGTTACTGAAGGCCA
DNA 2: TGGCCTTCAGTAACCT
[3]
  activity: 6 fold induction

B4: -7188 LXRE (ABC1 intron 1) (dsDNA)
DNA 1: AGATCACTTGAGGTCA
DNA 2: TGACCTCAAGTGATCT
LXRα/RXRα heterodimer [4]
  binding result: binds
